Assay results from PMC10992290, “In vitro biosynthesis of ATP from adenosine and polyphosphate” (Bioresources and Bioprocessing, 2021).

Assays:
Experiment in all cases: HPLC nucleotide assay
AtAdk = target: T1, AtAdk (Arabidopsis thaliana, UniProt Q9LZG0); format: biochemical; settings: phosphate donor; 10 mM adenosine, 20 mM MgCl2, Tris-HCl pH 8.0, 45 °C
T1 construct: gene ADK2

HPLC nucleotide assay [1] = substrate: Nc1ncnc2c1ncn2[C@@H]1O[C@H](COP(=O)(O)OP(=O)(O)O)[C@@H](O)[C@H]1O; format: biochemical, Sulfurovum lithotrophicum; settings: polyP6 as phosphate donor, MgCl2, Tris-HCl pH 8.0, 37 °C (routine assay)
From the text: HPLC nucleotide assay on SlPPK

HPLC nucleotide assay [2] = substrate: Nc1ncnc2c1ncn2[C@@H]1O[C@H](COP(=O)(O)O)[C@@H](O)[C@H]1O; format: biochemical, Lampropedia hyalina; settings: polyP6 as phosphate donor, MgCl2, Tris-HCl pH 8.0, 37 °C (routine assay)
From the text: HPLC nucleotide assay on LhPPK

T1 sequence (Q9LZG0 whole entry): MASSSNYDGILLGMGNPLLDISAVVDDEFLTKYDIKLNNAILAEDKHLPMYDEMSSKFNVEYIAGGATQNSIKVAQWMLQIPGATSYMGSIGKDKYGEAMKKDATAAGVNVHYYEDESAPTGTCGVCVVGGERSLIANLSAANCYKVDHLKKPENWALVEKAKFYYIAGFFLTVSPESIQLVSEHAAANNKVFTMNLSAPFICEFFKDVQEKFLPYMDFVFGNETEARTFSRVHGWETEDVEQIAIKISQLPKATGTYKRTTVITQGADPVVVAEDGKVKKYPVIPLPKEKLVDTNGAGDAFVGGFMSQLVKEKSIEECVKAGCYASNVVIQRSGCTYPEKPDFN

Nc1ncnc2c1ncn2[C@@H]1O[C@H](COP(=O)(O)OP(=O)(O)OP(=O)(O)O)[C@@H](O)[C@H]1O [ATP]
HPLC nucleotide assay (AtAdk): conversion of adenosine to AMP by AtAdk, which required ATP as a phosphate donor

B1: SlPPK (Sulfurovum lithotrophicum) (protein)
chain: MKKNIYKKELYKLQVELVKFQKYVIEENVAVCLVLEGRDTAGKDGTIKRFTEHLSPREARTVALGVPSDKEKKSWYFQRYVPHLPSAGEIVFFNRSWYNRAGVEKVMGFCTKKQYKAFMEEVGSFEQMLTHSNIRFFKYYLDITKKEQKKRLEARKTDPLKQWKLSPIDAKAQKMWDAYSKARDDMFNKTSFIYAPWYVVHTDDKKEARINIMKHFLSLNDYPDKDKALLVYDHDVICKFDPVCYEKEMIAP
Km (HPLC nucleotide assay [1]): 0.61 mM
Vmax (HPLC nucleotide assay [1]): 1400 µM/min
kcat (HPLC nucleotide assay [1]): 140 s⁻¹
kcat/Km (HPLC nucleotide assay [1]): 230000 M⁻¹ s⁻¹

B2: LhPPK (Lampropedia hyalina DSM 16112) (protein)
chain: MTRKESPPMEAFKKYRISPKNTLKDIDPSDKPFSFGTKKDELQRLDELAVELDDLQNTLYAGKRRKVLLILQGLDTSGKDGTIRWVFSRTSPLGVHVAAFKAPSERERAHDFLWRCHAVVPANGELTVWNRSHYEDVLVPPVEGWIDKAETQRRYGHINDFERLLSETGTTIVKCMLHISNEEQRERLQDRLKDPGKNWKFAADDLSTRAKWNDYQRAYEQALQATSTPHAPWYVIPANSKRHRNLMVAQLLVQTLRDMKLRLPPPNLAFKDLVVN
Km (HPLC nucleotide assay [2]): 5.70 mM
Vmax (HPLC nucleotide assay [2]): 860 µM/min
kcat (HPLC nucleotide assay [2]): 92 s⁻¹
kcat/Km (HPLC nucleotide assay [2]): 16100 M⁻¹ s⁻¹
